Results on 42 variants are retold here after the MegaScale stability set (Tsuboyama et al. 2023).

Sequences and labels used below:
B1: 2K2A (parent)
chain: ELREAFRLYDKEGNGYISTDVMREILAELDETLSSEDLDAMIDEIDADGSGTVDFEEFMGVMT

In this series the parent is B1. The experiment in a line: folding stability dG (cDNA display proteolysis); higher = more stable. The note with it: PBS, room temperature.
As to ELREAFRLYDKEGNGYISTDVMREILAELDETLSSEGLDAMIDEIDADGSGTVDFEEFMGVMT [D37G], the “folding stability dG” value worked out at 1.15 kcal/mol. For ELREAFRLYDKEGNGYISTDVMREILAELDETLSSECLDAMIDEIDADGSGTVDFEEFMGVMT [D37C], the “folding stability dG” value came out at 2 kcal/mol. For ELREAFRLYDKEGNGYISTDVMREILAELDETLSSEMLDAMIDEIDADGSGTVDFEEFMGVMT [D37M], the “folding stability dG” value turned out to be 1.96 kcal/mol.

ELREAFRLYDKEGNGYISTDVMREILAELDETLSSEPLDAMIDEIDADGSGTVDFEEFMGVMT [D37P]: the “folding stability dG” value was -0.169 kcal/mol.

Take ELREAFRLYDKEGNGYISTDVMREILAELDETLSSEALDAMIDEIDADGSGTVDFEEFMGVMT [D37A]: the “folding stability dG” value is 1.86 kcal/mol. In the case of ELREAFRLYDKEGNGYISTDVMREILAELDETLSSEFLDAMIDEIDADGSGTVDFEEFMGVMT [D37F] it was 1.22 kcal/mol; in that of ELREAFRLYDKEGNGYISTDVMREILAELDETLSSEQLDAMIDEIDADGSGTVDFEEFMGVMT [D37Q], 2.1 kcal/mol.

With ELREAFRLYDKEGNGYISTDVMREILAELDETLSSESLDAMIDEIDADGSGTVDFEEFMGVMT [D37S], the “folding stability dG” value worked out at 1.52 kcal/mol.

In the case of ELREAFRLYDKEGNGYISTDVMREILAELDETLSSEYLDAMIDEIDADGSGTVDFEEFMGVMT [D37Y], the “folding stability dG” value was determined as 1.26 kcal/mol.

As for ELREAFRLYDKEGNGYISTDVMREILAELDETLSSEHLDAMIDEIDADGSGTVDFEEFMGVMT [D37H], the “folding stability dG” value stood at 1.4 kcal/mol. Turning to ELREAFRLYDKEGNGYISTDVMREILAELDETLSSERLDAMIDEIDADGSGTVDFEEFMGVMT [D37R], the “folding stability dG” value was 1.82 kcal/mol. For ELREAFRLYDKEGNGYISTDVMREILAELDETLSSEELDAMIDEIDADGSGTVDFEEFMGVMT [D37E], the “folding stability dG” value stood at 2.08 kcal/mol. Regarding ELREAFRLYDKEGNGYISTDVMREILAELDETLSSEVLDAMIDEIDADGSGTVDFEEFMGVMT [D37V], the “folding stability dG” value was 1.66 kcal/mol. On to ELREAFRLYDKEGNGYISTDVMREILAELDETLSSELLDAMIDEIDADGSGTVDFEEFMGVMT [D37L], for which the “folding stability dG” value was 1.59 kcal/mol.

Consider ELREAFRLYDKEGNGYISTDVMREILAELDETLSSETLDAMIDEIDADGSGTVDFEEFMGVMT [D37T], for which the “folding stability dG” value was 1.76 kcal/mol. Take ELREAFRLYDKEGNGYISTDVMREILAELDETLSSEILDAMIDEIDADGSGTVDFEEFMGVMT [D37I]: the “folding stability dG” value turned out to be 1.65 kcal/mol. In the case of ELREAFRLYDKEGNGYISTDVMREILAELDETLSSEWLDAMIDEIDADGSGTVDFEEFMGVMT [D37W], the “folding stability dG” value was 1.56 kcal/mol. Take ELREAFRLYDKEGNGYISTDVMREILAELDETLSSEKLDAMIDEIDADGSGTVDFEEFMGVMT [D37K]: the “folding stability dG” value was found to be 1.71 kcal/mol. Consider ELREAFRLYDKEGNGYISTDVMREILAELDETLSSENLDAMIDEIDADGSGTVDFEEFMGVMT [D37N], for which the “folding stability dG” value worked out at 1.32 kcal/mol. On to ELREAFRLYDKEGNGYISTDVMREILAELDETLSSLDLDAMIDEIDADGSGTVDFEEFMGVMT [E36L], for which the “folding stability dG” value was 1.66 kcal/mol.

As for ELREAFRLYDKEGNGYISTDVMREILAELDETLSSYDLDAMIDEIDADGSGTVDFEEFMGVMT [E36Y], the “folding stability dG” value is 1.81 kcal/mol. In the case of ELREAFRLYDKEGNGYISTDVMREILAELDETLSSTDLDAMIDEIDADGSGTVDFEEFMGVMT [E36T], the “folding stability dG” value is 1.82 kcal/mol. For ELREAFRLYDKEGNGYISTDVMREILAELDETLSSMDLDAMIDEIDADGSGTVDFEEFMGVMT [E36M] the value was 1.7 kcal/mol; for ELREAFRLYDKEGNGYISTDVMREILAELDETLSSFDLDAMIDEIDADGSGTVDFEEFMGVMT [E36F], 1.83 kcal/mol. On to ELREAFRLYDKEGNGYISTDVMREILAELDETLSSHDLDAMIDEIDADGSGTVDFEEFMGVMT [E36H], for which the “folding stability dG” value was 1.65 kcal/mol. Take ELREAFRLYDKEGNGYISTDVMREILAELDETLSSSDLDAMIDEIDADGSGTVDFEEFMGVMT [E36S]: the “folding stability dG” value amounted to 1.88 kcal/mol.

As to ELREAFRLYDKEGNGYISTDVMREILAELDETLSSCDLDAMIDEIDADGSGTVDFEEFMGVMT [E36C], the “folding stability dG” value is 1.85 kcal/mol. Take ELREAFRLYDKEGNGYISTDVMREILAELDETLSSRDLDAMIDEIDADGSGTVDFEEFMGVMT [E36R]: the “folding stability dG” value was 1.82 kcal/mol. Consider ELREAFRLYDKEGNGYISTDVMREILAELDETLSSNDLDAMIDEIDADGSGTVDFEEFMGVMT [E36N], for which the “folding stability dG” value is 1.66 kcal/mol. For ELREAFRLYDKEGNGYISTDVMREILAELDETLSSDDLDAMIDEIDADGSGTVDFEEFMGVMT [E36D], the “folding stability dG” value turned out to be 1.89 kcal/mol. Regarding ELREAFRLYDKEGNGYISTDVMREILAELDETLSSWDLDAMIDEIDADGSGTVDFEEFMGVMT [E36W], the “folding stability dG” value was determined as 1.87 kcal/mol. With ELREAFRLYDKEGNGYISTDVMREILAELDETLSSPDLDAMIDEIDADGSGTVDFEEFMGVMT [E36P], the “folding stability dG” value turned out to be 1.04 kcal/mol. With ELREAFRLYDKEGNGYISTDVMREILAELDETLSSVDLDAMIDEIDADGSGTVDFEEFMGVMT [E36V], the “folding stability dG” value is 1.69 kcal/mol. Regarding ELREAFRLYDKEGNGYISTDVMREILAELDETLSSIDLDAMIDEIDADGSGTVDFEEFMGVMT [E36I], the “folding stability dG” value stood at 1.53 kcal/mol. Consider ELREAFRLYDKEGNGYISTDVMREILAELDETLSSKDLDAMIDEIDADGSGTVDFEEFMGVMT [E36K], for which the “folding stability dG” value was found to be 1.81 kcal/mol.

For ELREAFRLYDKEGNGYISTDVMREILAELDETLSSADLDAMIDEIDADGSGTVDFEEFMGVMT [E36A], the “folding stability dG” value is 1.96 kcal/mol. For ELREAFRLYDKEGNGYISTDVMREILAELDETLSSQDLDAMIDEIDADGSGTVDFEEFMGVMT [E36Q] the value was 1.82 kcal/mol; for ELREAFRLYDKEGNGYISTDVMREILAELDETLSSGDLDAMIDEIDADGSGTVDFEEFMGVMT [E36G], 1.54 kcal/mol; for ELREAFRLYDKEGNGYISTDVMREILAELDETLSLEDLDAMIDEIDADGSGTVDFEEFMGVMT [S35L], 1.69 kcal/mol. For ELREAFRLYDKEGNGYISTDVMREILAELDETLSCEDLDAMIDEIDADGSGTVDFEEFMGVMT [S35C], the “folding stability dG” value was determined as 1.64 kcal/mol. Regarding ELREAFRLYDKEGNGYISTDVMREILAELDETLSNEDLDAMIDEIDADGSGTVDFEEFMGVMT [S35N], the “folding stability dG” value was determined as 1.85 kcal/mol. In the case of ELREAFRLYDKEGNGYISTDVMREILAELDETLSIEDLDAMIDEIDADGSGTVDFEEFMGVMT [S35I], the “folding stability dG” value is 1.79 kcal/mol.
